Target: LexA408-DBD-iLight V464L-msfGFP (E. coli; Idiomarina sp.)
Experiment: cell-based or functional assay

inhibition efficiency of the gene expression (mCherry reporter, E. coli, 660 nm): 1.6 fold
Substance: LexA408-DBD-iLight V464L-msfGFP

Reference: US20240254458A1
